According to patent US20190177411:

Key:
[1] = molecular target: recombinant Human Pyruvate Dehydrogenase E1-alpha subunit protein (Abcam) (UniProt P08559)
[2] = tested on: purified recombinant His-tagged PDK1 (Abcam)
Sequence of purified recombinant His-tagged PDK1 (Abcam) (chain, as listed by the source): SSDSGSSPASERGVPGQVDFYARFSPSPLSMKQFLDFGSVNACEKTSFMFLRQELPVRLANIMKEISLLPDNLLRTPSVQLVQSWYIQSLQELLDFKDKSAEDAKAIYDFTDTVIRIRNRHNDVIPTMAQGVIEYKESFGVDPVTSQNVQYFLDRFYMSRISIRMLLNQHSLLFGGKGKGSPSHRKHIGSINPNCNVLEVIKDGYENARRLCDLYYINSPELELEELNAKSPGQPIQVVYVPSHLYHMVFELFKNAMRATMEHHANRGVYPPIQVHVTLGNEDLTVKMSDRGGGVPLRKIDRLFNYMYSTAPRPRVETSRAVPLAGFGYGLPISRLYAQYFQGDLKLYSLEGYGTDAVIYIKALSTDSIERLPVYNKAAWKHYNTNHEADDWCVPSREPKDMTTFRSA

Sequence of recombinant Human Pyruvate Dehydrogenase E1-alpha subunit protein (Abcam) (P08559 30-390): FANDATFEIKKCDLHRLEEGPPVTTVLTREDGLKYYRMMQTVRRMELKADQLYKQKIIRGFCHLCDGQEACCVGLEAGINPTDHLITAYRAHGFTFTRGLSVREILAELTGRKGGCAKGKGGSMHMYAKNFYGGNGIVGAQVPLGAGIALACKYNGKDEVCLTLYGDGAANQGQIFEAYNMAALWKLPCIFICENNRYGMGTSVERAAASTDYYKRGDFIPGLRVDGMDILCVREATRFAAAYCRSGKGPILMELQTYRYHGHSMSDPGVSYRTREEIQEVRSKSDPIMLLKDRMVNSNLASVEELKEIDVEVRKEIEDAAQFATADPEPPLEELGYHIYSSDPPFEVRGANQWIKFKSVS
Sequence of purified recombinant His-tagged PDK4 (Abcam) (chain, as listed by the source): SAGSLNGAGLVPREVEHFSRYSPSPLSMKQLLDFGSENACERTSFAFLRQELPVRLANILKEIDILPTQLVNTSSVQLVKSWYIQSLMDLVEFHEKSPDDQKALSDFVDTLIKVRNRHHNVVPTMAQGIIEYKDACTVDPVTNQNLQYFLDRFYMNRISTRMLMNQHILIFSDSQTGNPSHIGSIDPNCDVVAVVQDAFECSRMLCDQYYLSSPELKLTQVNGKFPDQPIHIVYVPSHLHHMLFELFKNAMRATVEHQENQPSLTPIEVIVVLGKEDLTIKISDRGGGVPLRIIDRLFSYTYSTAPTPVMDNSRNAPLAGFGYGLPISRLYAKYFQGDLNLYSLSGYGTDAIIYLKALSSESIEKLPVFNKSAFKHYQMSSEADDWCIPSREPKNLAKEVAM
Sequence of Flag-tagged T346A PDK1 mutant (chain, as listed by the source T346A): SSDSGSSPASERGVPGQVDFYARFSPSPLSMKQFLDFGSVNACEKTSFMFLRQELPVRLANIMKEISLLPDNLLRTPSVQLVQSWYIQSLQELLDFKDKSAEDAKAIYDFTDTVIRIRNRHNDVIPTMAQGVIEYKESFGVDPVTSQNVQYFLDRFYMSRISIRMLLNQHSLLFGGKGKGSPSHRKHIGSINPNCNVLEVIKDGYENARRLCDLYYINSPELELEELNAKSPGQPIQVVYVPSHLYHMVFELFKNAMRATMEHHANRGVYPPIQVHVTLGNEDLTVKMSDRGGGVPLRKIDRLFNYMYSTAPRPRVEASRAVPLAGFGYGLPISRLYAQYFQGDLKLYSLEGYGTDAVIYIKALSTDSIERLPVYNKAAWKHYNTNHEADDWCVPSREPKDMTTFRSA

Flag-tagged T346A PDK1 mutant
PDHE1 phosphorylation by Flag immune complexes mixed with recombinant Akt2 and PDHE1, Western blotting [1]: T346A PDK1 mutant was ineffective

kinase active Akt1 (SignalChem)
phosphorylation in a kinase assay, Western blotting with Akt cons Ab [2]: active Akt1 or Akt2 readily phosphorylated PDK1 | phosphorylation site by LC-MS/MS of chymotrypsin digests after a kinase assay [2]: Thr346 (T346) was identified ... as the sole phospho-amino acid modified by Akt1 or Akt2, compared to control

purified recombinant His-tagged PDK2 (Abcam)
PDHE1 phosphorylation in a kinase assay with active Akt2, Western blotting [1]: increased PDHE1 phosphorylation was detected only in the presence of Akt2 and PDK1, but not PDK2, PDK3 or PDK4

purified recombinant His-tagged PDK4 (Abcam)
PDHE1 phosphorylation in a kinase assay with active Akt2, Western blotting [1]: increased PDHE1 phosphorylation was detected only in the presence of Akt2 and PDK1, but not PDK2, PDK3 or PDK4

purified recombinant His-tagged PDK3 (Abcam)
PDHE1 phosphorylation in a kinase assay with active Akt2, Western blotting [1]: increased PDHE1 phosphorylation was detected only in the presence of Akt2 and PDK1, but not PDK2, PDK3 or PDK4

purified recombinant His-tagged PDK1 (Abcam)
PDHE1 phosphorylation in a kinase assay with recombinant proteins, Western blotting [1]: active Akt2 increased PDK1 phosphorylation of PDHE1

Flag-tagged wild type (WT) PDK1 phosphorylated on T346 (by active Akt2 in a kinase assay, or as precipitated from hypoxic PC3 cells)
PDHE1 phosphorylation by Flag immune complexes mixed with recombinant Akt2 and PDHE1, Western blotting [1]: WT PDK1 phosphorylated PDHE1 in the presence of Akt2
